Experimental data: article PMC8930183, “Structure of the Pf12 and Pf41 heterodimeric complex of Plasmodium falciparum 6-cysteine proteins” (FEMS Microbes, 2022)
Where a chain is given by its changes, count along the chain named.

T1: Pf12 labelled with DyLight 488 (Plasmodium falciparum (sequence as 3D7), DyLight 488 (N-hydroxysuccinimide ester), about 2.4 dye per protein)
T1 construct: Pf12, Plasmodium falciparum 6-cysteine protein; The FRET methods say only 'Pf12'; also called Pf12-DL488
T1 chain: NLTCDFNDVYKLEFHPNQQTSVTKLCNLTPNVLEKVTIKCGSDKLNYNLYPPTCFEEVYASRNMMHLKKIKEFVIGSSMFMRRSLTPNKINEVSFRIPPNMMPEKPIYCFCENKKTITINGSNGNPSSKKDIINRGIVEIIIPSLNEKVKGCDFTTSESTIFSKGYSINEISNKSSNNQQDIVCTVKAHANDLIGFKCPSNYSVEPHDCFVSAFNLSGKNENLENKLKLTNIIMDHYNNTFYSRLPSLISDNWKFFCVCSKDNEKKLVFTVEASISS

T2: Pf41 D1D2 (residues 21-368), untagged (Plasmodium falciparum, UniProt Q8I1Y0 21-368)
T2 construct: Pf41, Plasmodium falciparum 6-cysteine protein, residues K21-S368 (D1 with the inserted-domain-like region ID, and D2); lacks the signal peptide and ten C-terminal residues; After TEV cleavage three residues, GAS, remain at the N-terminus as cloning artefacts; N-glycosylation sites kept; treated with PNGase F before crystallisation; also called Pf41 wildtype; source: Spodoptera frugiperda 21 …
T2 sequence (looked up): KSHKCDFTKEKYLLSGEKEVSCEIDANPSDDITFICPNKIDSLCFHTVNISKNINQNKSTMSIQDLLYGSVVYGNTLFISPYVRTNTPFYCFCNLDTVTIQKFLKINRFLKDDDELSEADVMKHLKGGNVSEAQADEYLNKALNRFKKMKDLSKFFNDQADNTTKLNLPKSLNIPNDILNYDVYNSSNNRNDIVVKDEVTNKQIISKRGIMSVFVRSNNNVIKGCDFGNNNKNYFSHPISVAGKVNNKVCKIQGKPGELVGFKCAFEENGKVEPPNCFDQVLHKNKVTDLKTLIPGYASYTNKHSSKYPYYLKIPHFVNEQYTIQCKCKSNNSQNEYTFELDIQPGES

T3: octa-histidine tagged Pf41 D1D2 (residues 21-368) (Plasmodium falciparum, UniProt Q8I1Y0 21-368)
T3 construct: Pf41, Plasmodium falciparum 6-cysteine protein, residues K21-S368; TEV-cleavable tag left on; loaded on NTA sensors; also called tagged wildtype Pf41; source: Spodoptera frugiperda 21 cells, secreted into growth media, purified as tagged protein (Ni-IMAC, SEC); not shown: His8, N-terminal, kept
T3 sequence: T2 sequence (looked up)

B1: nanobody A11 (VHH)
VHH: QVQLQESGGGLVQPGGSLRLSCAASGFTFDDYAIGWFRQAPGKEREGVSCIMSSDGSAYYADSVKGRFTISRDNAKNTVYLQMNSLRPEDTANYYCATDKIVCSTGFIVDYGMHYGGKGTQVTVSS
notes: alpaca, immunised with Pf12-Pf41 complex; Pf12-specific; source: E. coli WK6, periplasmic extract, purified (HisTrap, SEC)
B2: nanobody A3 (VHH)
VHH: QVQLQESGGGLVQAGGSLRLSCAASGRTFSNYAMGWFRQAPGKEREFVAAITWSGDSTYYGDSVKGRFTISRDNAKSTAYLQMNSLKPEDTAVYYCAADEAVVTTTLQWDYWGQGTQVTVSS
notes: as for B1
B3: nanobody A6 (VHH)
VHH: QVQLQESGGGLVQPGGSLRLSCAASGGTIRSDGMGWFRQVPKKEREFVGMITYMGPVYTADSVEGRFAISRDNVKNTVYLQMNNLQPEDTAVYYCAVHVGGIYYYEGSYEYWGQGTQVTVSS
notes: alpaca, immunised with Pf12-Pf41 complex; Pf41-specific; source: E. coli WK6, periplasmic extract, purified (HisTrap, SEC)
B4: nanobody G12 (VHH)
VHH: B3 VHH with G33S, I51L, E64K, E88D, G100S, I102V, G107D, E110R
notes: as for B3
B5: nanobody G11 (VHH)
VHH: B3 VHH with G33S, E64K, A68T, T90A, V99I, G100S, I102L, G107A, E110K
notes: as for B3
B6: Pf12 D1D2 (residues 28-304), untagged (domain or fragment, Plasmodium falciparum, UniProt C6KSX0 28-304, looked up)
chain: T1 chain
notes: Pf12, Plasmodium falciparum 6-cysteine protein, residues N28-S304 (domains D1 and D2); lacks the signal peptide and the GPI-anchor site; After TEV cleavage three residues, GAS, remain at the N-terminus as cloning artefacts; N-glycosylation sites kept; treated with PNGase F before crystallisation; also called Pf12 wildtype; source: Spodoptera frugiperda 21 cells, secreted into growth media, …
B7: nanobody H9 (VHH)
VHH: QVQLQESGGGLVQPGGSLRLSCAASGFTLDYYAIGWFRQAPGKEREGVSCIMSSDGSTYYADSVKGRFTISRDNAVNTVYLQMNGLKPEDTAVYYCATDKIVCGSGFIVDYGTDYRGKGTQVTVSS
notes: as for B1

Key:
Conditions in all cases: both partners purified
[1] = molecular target: T1, Pf12 labelled with DyLight 488; test: FRET or BRET; Pf12-DL488 and Pf41-DL594 mixed 1:1 with five-fold excess of nanobody; FRET signal relative to the no-nanobody control
[2] = molecular target: T4, Pf12 D1D2 (residues 28-304), untagged (Plasmodium falciparum, UniProt C6KSX0); test: BLI; Octet RED96e; nanobodies loaded on NTA sensors; untagged Pf12 or Pf41 (6-200 nM) or their domains in solution; PBS pH 7.4, 0.1% BSA, 0.05% TWEEN-20, 25°C; global 1:1 fit
T4 construct: Pf12, Plasmodium falciparum 6-cysteine protein, residues N28-S304 (domains D1 and D2); lacks the signal peptide and the GPI-anchor site; After TEV cleavage three residues, GAS, remain at the N-terminus as cloning artefacts; N-glycosylation sites kept; treated with PNGase F before crystallisation; also called Pf12 wildtype; source: Spodoptera frugiperda 21 cells, secreted into growth media, …

[3] = molecular target: T5, Pf41 D1D2 (residues 21-368), untagged (Plasmodium falciparum, UniProt Q8I1Y0); test: as above
T5 construct: Pf41, Plasmodium falciparum 6-cysteine protein, residues K21-S368 (D1 with the inserted-domain-like region ID, and D2); lacks the signal peptide and ten C-terminal residues; After TEV cleavage three residues, GAS, remain at the N-terminus as cloning artefacts; N-glycosylation sites kept; treated with PNGase F before crystallisation; also called Pf41 wildtype; source: Spodoptera frugiperda 21 …

[4] = molecular target: T6, Pf12 D2 (residues E174-S304) (Plasmodium falciparum, UniProt C6KSX0); test: as above
T6 construct: Pf12, Plasmodium falciparum, C-terminal 6-cys domain D2, residues E174-S304; also called Pf12 D2 domain; source: Spodoptera frugiperda 21 cells, purified by the same protocol as Pf12 D1D2; not shown: His8, N-terminal, cleaved

[5] = molecular target: T7, Pf41 D2 (residues I242-S368) (Plasmodium falciparum 3D7, UniProt Q8I1Y0); test: as above
T7 construct: Pf41, Plasmodium falciparum, C-terminal 6-cys domain D2, residues I242-S368; also called Pf41 D2 domain; source: Spodoptera frugiperda 21 cells, purified by the same protocol as Pf41 D1D2; not shown: His8, N-terminal, cleaved

[6] = molecular target: T2, Pf41 D1D2 (residues 21-368), untagged; test: AUC; sedimentation velocity, 20°C, 50 000 rpm, absorbance at 280 nm, c(s) analysis with SEDFIT
[7] = molecular target: T3, octa-histidine tagged Pf41 D1D2 …; test: BLI; Octet RED96e; octa-histidine tagged Pf41 loaded on NTA sensors; untagged Pf12 wildtype, mutant or single domain 31-1000 nM; PBS pH 7.4, 0.1% BSA, 0.05% TWEEN-20, 25°C; read-out relative maximum response against wildtype

Binder | percent reduction of the Pf12-Pf41 FRET signal [1] [%] | binding result [3] | binding result [5] | further results
B1 | ~90 | no binding | – | binding result [2]: binds; binding result [4]: binds
B2 | ~90 | no binding | – | binding result [2]: binds; binding result [4]: binds
B3 | – | binds | no binding | –
B4 | – | binds | no binding | –
B5 | – | binds | no binding | –
B6 | – | – | – | binding result [6]: binds; binding result [7]: binds
B7 | ~90 | no binding | – | Kd [2]: < 0.01 nM
